Reference: patent publication US20090156476A1 (NASCACELL TECHNOLOGIES, published 2009)
Ends that are not written are not given here.

Target: T1, TPOR/4Rα hybrid receptor (fusion of the hTPOR extracellular domain and the intracellular 4Rα domain from … (human, UniProt P40238 26-491; P24394 257-825, limits assumed)
T1 sequence (looked up): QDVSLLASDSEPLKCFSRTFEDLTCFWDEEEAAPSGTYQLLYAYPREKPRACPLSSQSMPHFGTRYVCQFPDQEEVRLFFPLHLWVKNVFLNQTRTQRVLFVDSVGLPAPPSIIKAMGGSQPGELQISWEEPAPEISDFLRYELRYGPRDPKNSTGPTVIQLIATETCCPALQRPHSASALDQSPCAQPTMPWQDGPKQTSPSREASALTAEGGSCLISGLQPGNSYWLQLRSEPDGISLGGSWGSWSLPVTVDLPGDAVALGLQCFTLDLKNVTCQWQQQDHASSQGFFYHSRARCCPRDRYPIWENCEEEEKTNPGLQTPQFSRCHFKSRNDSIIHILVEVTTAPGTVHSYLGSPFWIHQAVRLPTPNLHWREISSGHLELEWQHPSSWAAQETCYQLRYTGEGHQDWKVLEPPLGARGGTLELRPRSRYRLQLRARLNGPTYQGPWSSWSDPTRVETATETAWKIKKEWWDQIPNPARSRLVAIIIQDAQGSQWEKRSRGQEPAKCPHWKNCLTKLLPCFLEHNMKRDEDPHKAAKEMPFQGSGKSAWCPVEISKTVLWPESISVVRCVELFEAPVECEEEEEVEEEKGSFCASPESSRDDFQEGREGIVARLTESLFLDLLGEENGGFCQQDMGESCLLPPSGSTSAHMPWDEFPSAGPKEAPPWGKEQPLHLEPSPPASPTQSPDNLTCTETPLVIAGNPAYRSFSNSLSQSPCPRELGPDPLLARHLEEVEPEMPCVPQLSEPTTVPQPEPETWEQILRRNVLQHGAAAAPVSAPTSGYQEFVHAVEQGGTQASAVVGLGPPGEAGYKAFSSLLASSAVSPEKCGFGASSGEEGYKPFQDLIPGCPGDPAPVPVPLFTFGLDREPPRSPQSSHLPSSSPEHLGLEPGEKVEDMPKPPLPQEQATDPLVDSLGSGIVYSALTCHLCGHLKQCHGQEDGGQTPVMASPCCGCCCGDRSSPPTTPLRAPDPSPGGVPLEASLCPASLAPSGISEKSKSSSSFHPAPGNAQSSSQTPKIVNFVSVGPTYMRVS
Test: cell-based or functional assay

| Binder | Agonist EC50[nM] (Ba/F3 luciferase reporter assay) |
| --- | --- |
| GCIEGPTLRQWLAACKQDSDCLAGCVCGPNGFCGS (designed binder, cysteine pairing not given here; also: DSS-crosslinked dimer, crosslink site not given here) [dimeric SE-ET-TP-030 (DSS-crosslinked dimer)] | 2.5 |
| GCIEGPTLRQWLAARACKQDSDCLAGCVCGPNGFCGS (designed binder, cysteine pairing not given here; also: DSS-crosslinked dimer, crosslink site not given here) [dimeric SE-ET-TP-020 (DSS-crosslinked dimer)] | 1.4 |
| GCVRLHESCLGQQVPCCDPAATCGGTALAIEGPTLRQWLAARACKGS (designed binder, cysteine pairing not given here; also: dimer crosslinked by DSS, site of crosslink not given here) [dimeric SE-AG-TP-040 (DSS-crosslinked dimer)] | ~2 |
| GCVRLHESCLGQQVPCCDPAATCGGTCLAIEGPTLRQWLCARACKGS (designed binder, cysteine pairing not given here; also: dimer crosslinked by DSS, site of crosslink not given here) [dimeric SE-AG-TP-050 (DSS-crosslinked dimer)] | 2.5 |
